The values that follow come from PMC4726326, “The Arabidopsis glutamyl-tRNA reductase (GluTR) forms a ternary complex with FLU and GluTR-binding protein” (Scientific Reports, 2016).

To fix the notation:
B1: Arabidopsis glutamyl-tRNA reductase (GluTR), residues 73-543 (enzyme, Arabidopsis thaliana, UniProt P42804 73-543, looked up)
chain: AASISALEQLKNSAADRYTKERSSIVVIGLSIHTAPVEMREKLAIPEAEWPRAIAELCGLNHIEEAAVLSTCNRMEIYVLALSQHRGVKEVTEWMSKTSGIPVSEICQHRFLLYNKDATQHIFEVSAGLDSLVLGEGQILAQVKQVVKVGQGVNGFGRNISGLFKHAITVGKRVRTETNIASGAVSVSSAAVELALMKLPQSSNVSARMCVIGAGKMGKLVIKHLMAKGCTKVVVVNRSEERVSAIREEMPGIEIIYRPLDEMLACASEADVVFTSTASETPLFLKEHVENLPQASPEVGGLRHFVDISVPRNVGSCVGEVETARVYNVDDLKEVVAANKEDRMRKAMEAQTIITEESTQFEAWRDSLETVPTIKKLRAYAERIRVAELEKCMSKMGDDINKKTTRAVDDLSRGIVNRFLHGPMQHLRCDGSDSRTLSETLENMHALNRMYGLEKDILEEKLKAMAEQQQK
notes: Expression vector pMAL-c5X; GluTR dimer fractions were collected from the gel filtration

Series [1] concerns the molecule itself. Description: crystal structure; FLU^TPR-GluTR-GBP ternary complex, space group C2, 3.2 Å, PDB 5CHE; sitting drop, 16 °C.
The target of series [2] is B1. Description: ITC; MicroCal iTC200, 25 °C; 20 mM Tris-HCl pH 7.5, 150 mM NaCl; 20 injections of 2 μl of 0.5 mM protein into 200 μl of 50 μM protein; one-site binding model; apparent Kd. The conditions noted are these: both partners purified.
For series [3], the target named is B1. Description: SEC; purified GluTR, GBP and FLU^TPR mixed at molar ratio 2:3:3, 1 hour at 4 °C; HiLoad 16/60 Superdex 200 pg; 20 mM Tris-HCl pH 7.5, 200 mM NaCl, 4 mM dithiothreitol. The note with it: both partners purified. (SEC sorts molecules by how far they enter the pores of the column.)

Take B1: the “stoichiometry N” value in series [1] came to 2.

B2: Arabidopsis GluTR-binding protein (GBP), residues 42-317 (natural protein, Arabidopsis thaliana, UniProt Q9LU39 42-317, looked up)
chain: CSVSTTLDTPATASTHKPFPAEVSRSIMELSSVGTLSTLTHDGWPLGVGVRFAVDKDGTPVLCLNRSVSPDKRSALHVQLEQCGLRTPQCTIQGSIGRPGDDTVLKRLSATWREKFGEEVKEDSLYVVAVDRVLQMEDFMEDGIWVASSDYKNASPDPLRDIAEDIVNQINANNMEDIFRFCNVYVDLDFVVSETKMIWMDRLGFDLRVWSPRGVYDVRIPFPMEVTDEKGAKSSFNGMSQLAWEVEKSYCPADFNKVKLLKQVVGSSHSHKGGGQ
notes: Expression vector pET-28a(+)
B2: the binding result in series [1] is listed as “binds”. Besides, the Kd in series [2] worked out at 41.3 ± 3.7 nM.

B3: C-terminal tetratricopeptide-repeat domain of Arabidopsis FLUORESCENT (FLU), residues 195-316 (domain or fragment, Arabidopsis thaliana, UniProt Q940U6 195-316, looked up)
chain: IVEPKKQELISKLKTGKTFLRNQEPEKAYTEFKIALELAQSLKDPTEEKKAARGLGASLQRQGKYREAIQYHSMVLAISKRESEDSGITEAYGAIADCYTELGDLEKAGKFYDTYIARLETD
notes: FLUORESCENT (FLU), Arabidopsis thaliana, At3g14110, truncation of residues 195-316 (TPR domain); Expression vector pET-22b(+); also called FLU^TPR; the recombinant TPR domain of FLU
Take B3: the binding result in series [1] and in series [3] was “binds” in each case.

One may read the stoichiometry N as a count of units in the complex or per binding partner.
